Patent US20190151401A1 (UNIVERSITY OF BRITISH COLUMBIA, published 2019)
Values belong to the binder of their own block, whether it stands above or below them.

Assays:
[1] = target: T1, cyclo(CGQKLVG) conjugated to BSA (also: conjugated to BSA); experiment: ELISA and SPR on peptide-BSA conjugates
T1 construct: BSA carrier is not written as a chain
T1 peptide: cyclo(CGQKLVG)

[2] = target: T2, A-beta42 oligomers (synthetic, commercially prepared, SynAging SAS) (human); experiment: ProteOn biosensor, antibody captured or amine-coupled on GLM chip, AbO 12.3 nM to 1 uM; approximate kinetic value
T2 construct: Non-covalent oligomer of A-beta 1-42; also called A-beta oligomer; AbO
T2 sequence (peptide, as listed by the source): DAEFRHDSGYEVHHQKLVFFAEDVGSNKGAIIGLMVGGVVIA

[3] = target: T3, cyclo(CGHHQKG) conjugated to BSA (also: conjugated to BSA); experiment: ProteOn biosensor, antibody amine-coupled on GLH chip, cyclo-BSA 111 pM to 9 nM
T3 construct: HHQK are A-beta residues 13-16; C and G residues are linker; BSA carrier is not written as a chain; also called Cyclo-BSA
T3 peptide: cyclo(CGHHQKG)
Procedure: Cyclo-BSA 3-fold dilutions were used from 9 nM to 111 pM. Assay buffer was PBS-E+0.05% Tween+10 mg/ml BSA.

[4] = target: T2, A-beta42 oligomers (synthetic, …); experiment: cell-based or functional assay
[5] = target: T4, cyclo(CGHDSGG) conjugated to BSA (also: conjugated to BSA); experiment: ELISA and SPR on peptide-BSA conjugates
T4 construct: BSA carrier is not written as a chain
T4 peptide: cyclo(CGHDSGG)

[6] = target: T3, cyclo(CGHHQKG) conjugated to BSA; experiment: ELISA and SPR on peptide-BSA conjugates

B3: antibody 301-17 (hybridoma-purified, IgG3, kappa), raised against cyclo(CGHHQKG) (antibody, V domains shown)
VH: QVQLQQPGAELVKPGASVKMSCKASGYSFTSYWINWVKQRPGQGLEWIGDVHPGRGVSTYNAKFKSKATLTLDTSSSTAYMQLSSLTSEDSAVYYCSRSHGNTYWFFDVWGAGTTVTVSS
VL: DVLMTQTPLSLPVSLGDQASISCRSSQSIVHSNGNTYLEWYLQKPGQSPKLLIYKVSNRFSGVPDRFSGSGSGTDFTLKISRVEAEDLGVYYCFQGSHVPFTFGSGTKLEIKR
notes: Mouse IgG3/kappa
Kd [2]: ~26.9 nM

B5: antibody 303-25, raised against cyclo(CGHDSGG) (antibody, V domains shown)
VH: QVQLQQPGAELVRPGASVKLSCKASGYTFTSYWMNWVKQRPGQGLEWIGMIDPSDSQTHYNQMFKDKATLTVDKSSSTAYLQLSSLTSEDSAVYYCSRGGYWGQGTTLTVSS
VL: DIQMTQSPSSLSASLGGKVTITCKASQDINNYIAWYQHKPGKGPRQLIYYTSTLQPGIPSRFSGSGSGRDYSFTISDLEPEDIATYYCLQYDNLWTFGGGTKLEIK
notes: Mouse, kappa; Entries as printed include the leader peptide
remaining cell viability at a molar ratio of 1:2 (AβO:AB1) [4]: 88.8 % of control
binding result [5]: binds

B6: antibody 305-61 (IgG3, kappa), raised against cyclo(CGQKLVG) (antibody, V domains shown)
VH: QVQLQQSGAELVRPGASVTLSCKASGYTFTDYEMHWVKQTPVHGLEWIGAIDPETGDTAYNQEFKGKATLTADKSSSTAYMELRSLTSEDSAVYYCTSPIYYDYDWFAYWGHGTLVTVSA
VL: DIVMSQSPSSLAVSAGEKVTMSCKSSQSLLNNRTRKNYLAWYQQKPGQSPKLLIYWASTRESGVPDRFTGSGSGTDFTLTISSVQAEDLAVYYCKQSYNLRTFGGGTKLEIKR
notes: Mouse IgG3/kappa; Entries as printed include the leader peptide and a few constant-region residues; also called 7E9.1
remaining cell viability at a molar ratio of 1:2 (AβO:AB1) [4]: 80.1 % of control
binding result [1]: binds

Other lines, results leading:

binding result [1]: binds
B1: antibody 305-62 (IgG1, kappa), raised against cyclo(CGQKLVG) (antibody, V domains shown)
VH: QVTLKESGPGILKPSQTLSLTCSFSGFSLSTSGMGVGWIRQPSGKGLEWLAHIWWDDDKYYNPSLKSQLTISKDTSRNQVFLKITSVDTADTATYYCARSITTVVATPFDYWGQGTTLTVSS
VL: DIVMTQSQKFMSTSVGDRVSITCKASQNVRSAVAWYQQKPGQSPKALIYLASNRHTGVPDRFTGSGSGTDFTLTISNVHSEDLTDYFCLQHWNSPFTFGGGTKLEIKR
notes: Mouse IgG1/kappa; Entries as printed include the leader peptide and a few constant-region residues

binding result [1]: binds
B2: antibody 305-59 (IgG1, kappa), raised against cyclo(CGQKLVG) (antibody, V domains shown)
VH: EVQLQQSGAELVKPGASVKLSCTVSGFNIKDTYVHWVKQRPEQGLEWIGRIAPASGNTKYAPNFQDKATITADTSSNTAYLQLNSLTSEDTAVYYCARHVYWGQGTLVTVSA
VL: SIVMTQTPKFLLVSAGDRVTITCKASQSVSNDVVWYQQKPGQSPKLLIYYASNRYTGVPDRFTGSGYGTDFTFTISTVQAEDLAVYFCQQDYISPYTFGGGTKLEIK
notes: Mouse IgG1/kappa; Entries as printed include the leader peptide; also called 59 (5G1)

Kd [3]: ~0.017 nM
Kd [2]: 16.2 to 19.5 nM
B4: recombinant 301-17 IgG2a (antibody, V domains shown)
VH: B3 VH
VL: B3 VL

binding result [6]: binds
B7: antibody 301-11 (IgG3, kappa), raised against cyclo(CGHHQKG) (antibody, V domains shown)
VH: EVQLVESGGGLVKPGGSLKLSCAASGFTFSDYYMYWVRQTPEKRLEWVATISDGGSYTSYPDSVKGRFTISRDNAKNNLYLQMSSLRSEDTAMYYCARDYYGSSSYTSGFAYWGQGTLVTVSA
VL: DIVMSQSPSSLAVSTGEKVTMSCKSSQSLLNSRTRKNYLAWYQQKPGQSPKLLIYWASTRESGVPDRFTGSGSGTDFTLTISSVQAEDLAVYYCKQSYNLYTFGGGTKLEIK
notes: Mouse IgG3/kappa; Entries as printed include the leader peptide
